± gives the uncertainty stated by the source.
Assay: abundance fitness (aPCA) (normalised: wild type 0, dead -1); higher = more abundant; growth selection in yeast, the domain comes from the species named
Conditions: Homo sapiens

| Substance | abundance fitness |
| --- | --- |
| Scaffold attachment factor B1 R60F, Q15424 | -0.801 ± 0.053 |
| Scaffold attachment factor B1 R60G, Q15424 | -0.464 ± 0.075 |
| Scaffold attachment factor B1 R60I, Q15424 | -0.551 ± 0.11 |
| Scaffold attachment factor B1 R60K, Q15424 | -0.099 ± 0.065 |
| Scaffold attachment factor B1 R60L, Q15424 | -0.335 ± 0.053 |
| Scaffold attachment factor B1 R60M, Q15424 | -0.38 ± 0.065 |
| Scaffold attachment factor B1 R60N, Q15424 | -0.326 ± 0.11 |
| Scaffold attachment factor B1 R60P, Q15424 | -0.492 ± 0.072 |
| Scaffold attachment factor B1 R60Q, Q15424 | -0.445 ± 0.081 |
| Scaffold attachment factor B1 R60S, Q15424 | -0.321 ± 0.076 |
| Scaffold attachment factor B1 R60T, Q15424 | -0.268 ± 0.081 |
| Scaffold attachment factor B1 R60V, Q15424 | -0.432 ± 0.069 |
| Scaffold attachment factor B1 R60W, Q15424 | -1.17 ± 0.065 |
| Scaffold attachment factor B1 R60Y, Q15424 | -0.642 ± 0.11 |
| Scaffold attachment factor B1 S32C, Q15424 | -0.32 ± 0.077 |
| Scaffold attachment factor B1 S32D, Q15424 | -0.236 ± 0.088 |
| Scaffold attachment factor B1 S32E, Q15424 | -0.419 ± 0.11 |
| Scaffold attachment factor B1 S32F, Q15424 | -0.344 ± 0.083 |
| Scaffold attachment factor B1 S32G, Q15424 | -0.235 ± 0.064 |
| Scaffold attachment factor B1 S32H, Q15424 | -0.493 ± 0.1 |
| Scaffold attachment factor B1 S32K, Q15424 | -0.173 ± 0.088 |
| Scaffold attachment factor B1 S32L, Q15424 | -0.294 ± 0.071 |

| Substance | abundance fitness |
| --- | --- |
| Scaffold attachment factor B1 S32M, Q15424 | -0.21 ± 0.067 |
| Scaffold attachment factor B1 S32N, Q15424 | -0.59 ± 0.1 |
| Scaffold attachment factor B1 S32P, Q15424 | -0.514 ± 0.083 |
| Scaffold attachment factor B1 S32R, Q15424 | -0.114 ± 0.057 |
| Scaffold attachment factor B1 S32T, Q15424 | -0.217 ± 0.089 |
| Scaffold attachment factor B1 S32V, Q15424 | -0.174 ± 0.059 |
| Scaffold attachment factor B1 S32W, Q15424 | -0.419 ± 0.053 |
| Scaffold attachment factor B1 S32Y, Q15424 | -0.331 ± 0.082 |
| Scaffold attachment factor B1 S50A, Q15424 | -0.2 ± 0.062 |
| Scaffold attachment factor B1 S50C, Q15424 | -0.226 ± 0.072 |
| Scaffold attachment factor B1 S50E, Q15424 | -0.278 ± 0.078 |
| Scaffold attachment factor B1 S50F, Q15424 | -0.259 ± 0.08 |
| Scaffold attachment factor B1 S50G, Q15424 | -0.257 ± 0.063 |
| Scaffold attachment factor B1 S50H, Q15424 | -0.099 ± 0.072 |
| Scaffold attachment factor B1 S50I, Q15424 | -0.292 ± 0.096 |
| Scaffold attachment factor B1 S50K, Q15424 | -0.558 ± 0.11 |
| Scaffold attachment factor B1 S50L, Q15424 | -0.234 ± 0.058 |
| Scaffold attachment factor B1 S50M, Q15424 | -0.302 ± 0.097 |
| Scaffold attachment factor B1 S50N, Q15424 | -0.316 ± 0.091 |
| Scaffold attachment factor B1 S50P, Q15424 | -0.191 ± 0.058 |
| Scaffold attachment factor B1 S50Q, Q15424 | -0.166 ± 0.086 |
| Scaffold attachment factor B1 S50R, Q15424 | -0.365 ± 0.06 |

| Substance | abundance fitness |
| --- | --- |
| Scaffold attachment factor B1 S50T, Q15424 | -0.312 ± 0.093 |
| Scaffold attachment factor B1 S50V, Q15424 | -0.236 ± 0.068 |
| Scaffold attachment factor B1 S50W, Q15424 | -0.226 ± 0.068 |
| Scaffold attachment factor B1 S50Y, Q15424 | -0.248 ± 0.074 |
| Scaffold attachment factor B1 S51A, Q15424 | -0.299 ± 0.071 |
| Scaffold attachment factor B1 S51C, Q15424 | -0.217 ± 0.07 |
| Scaffold attachment factor B1 S51E, Q15424 | -0.247 ± 0.078 |
| Scaffold attachment factor B1 S51F, Q15424 | -0.389 ± 0.085 |
| Scaffold attachment factor B1 S51G, Q15424 | -0.111 ± 0.058 |
| Scaffold attachment factor B1 S51H, Q15424 | -0.26 ± 0.11 |
| Scaffold attachment factor B1 S51I, Q15424 | -0.153 ± 0.089 |
| Scaffold attachment factor B1 S51K, Q15424 | -0.327 ± 0.093 |
| Scaffold attachment factor B1 S51L, Q15424 | -0.197 ± 0.061 |
| Scaffold attachment factor B1 S51M, Q15424 | -0.284 ± 0.07 |
| Scaffold attachment factor B1 S51N, Q15424 | -0.167 ± 0.1 |
| Scaffold attachment factor B1 S51P, Q15424 | -0.879 ± 0.11 |
| Scaffold attachment factor B1 S51Q, Q15424 | -0.271 ± 0.079 |
| Scaffold attachment factor B1 S51R, Q15424 | -0.141 ± 0.076 |
| Scaffold attachment factor B1 S51T, Q15424 | -0.326 ± 0.081 |
| Scaffold attachment factor B1 S51V, Q15424 | -0.118 ± 0.061 |
| Scaffold attachment factor B1 S51W, Q15424 | -0.55 ± 0.088 |
| Scaffold attachment factor B1 S51Y, Q15424 | -0.472 ± 0.11 |

| Substance | abundance fitness |
| --- | --- |
| Scaffold attachment factor B1 S55A, Q15424 | -0.207 ± 0.076 |
| Scaffold attachment factor B1 S55D, Q15424 | -0.187 ± 0.082 |
| Scaffold attachment factor B1 S55E, Q15424 | -0.092 ± 0.069 |
| Scaffold attachment factor B1 S55F, Q15424 | -0.223 ± 0.054 |
| Scaffold attachment factor B1 S55G, Q15424 | -0.144 ± 0.066 |
| Scaffold attachment factor B1 S55H, Q15424 | -0.291 ± 0.091 |
| Scaffold attachment factor B1 S55I, Q15424 | -0.261 ± 0.09 |
| Scaffold attachment factor B1 S55K, Q15424 | -0.229 ± 0.093 |
| Scaffold attachment factor B1 S55L, Q15424 | -0.147 ± 0.049 |
| Scaffold attachment factor B1 S55M, Q15424 | -0.12 ± 0.072 |
| Scaffold attachment factor B1 S55N, Q15424 | -0.13 ± 0.08 |
| Scaffold attachment factor B1 S55P, Q15424 | -0.429 ± 0.1 |
| Scaffold attachment factor B1 S55Q, Q15424 | -0.133 ± 0.059 |
| Scaffold attachment factor B1 S55R, Q15424 | -0.083 ± 0.06 |
| Scaffold attachment factor B1 S55T, Q15424 | -0.199 ± 0.071 |
| Scaffold attachment factor B1 S55V, Q15424 | -0.081 ± 0.055 |
| Scaffold attachment factor B1 S55W, Q15424 | -0.287 ± 0.056 |
| Scaffold attachment factor B1 S55Y, Q15424 | -0.307 ± 0.08 |
| Scaffold attachment factor B1 S79A, Q15424 | -0.127 ± 0.065 |
| Scaffold attachment factor B1 S79C, Q15424 | -0.286 ± 0.077 |
| Scaffold attachment factor B1 S79E, Q15424 | -0.288 ± 0.097 |
| Scaffold attachment factor B1 S79F, Q15424 | -0.239 ± 0.08 |

| Substance | abundance fitness |
| --- | --- |
| Scaffold attachment factor B1 S79G, Q15424 | -0.119 ± 0.062 |
| Scaffold attachment factor B1 S79H, Q15424 | -0.266 ± 0.086 |
| Scaffold attachment factor B1 S79K, Q15424 | -0.229 ± 0.1 |
| Scaffold attachment factor B1 S79L, Q15424 | -0.118 ± 0.068 |
| Scaffold attachment factor B1 S79M, Q15424 | -0.136 ± 0.063 |
| Scaffold attachment factor B1 S79N, Q15424 | -0.264 ± 0.091 |
| Scaffold attachment factor B1 S79P, Q15424 | -0.108 ± 0.06 |
| Scaffold attachment factor B1 S79Q, Q15424 | -0.443 ± 0.11 |
| Scaffold attachment factor B1 S79R, Q15424 | -0.25 ± 0.081 |
| Scaffold attachment factor B1 S79T, Q15424 | -0.129 ± 0.062 |
| Scaffold attachment factor B1 S79V, Q15424 | -0.131 ± 0.06 |
| Scaffold attachment factor B1 S79W, Q15424 | -0.409 ± 0.087 |
| Scaffold attachment factor B1 S79Y, Q15424 | -0.286 ± 0.078 |
| Scaffold attachment factor B1 T26A, Q15424 | -0.282 ± 0.12 |
| Scaffold attachment factor B1 T26C, Q15424 | -0.22 ± 0.079 |
| Scaffold attachment factor B1 T26D, Q15424 | -0.915 ± 0.36 |
| Scaffold attachment factor B1 T26E, Q15424 | -0.242 ± 0.13 |
| Scaffold attachment factor B1 T26G, Q15424 | -0.304 ± 0.071 |
| Scaffold attachment factor B1 T26I, Q15424 | -0.314 ± 0.14 |
| Scaffold attachment factor B1 T26K, Q15424 | -0.31 ± 0.14 |
| Scaffold attachment factor B1 T26L, Q15424 | -0.518 ± 0.15 |
| Scaffold attachment factor B1 T26M, Q15424 | -0.213 ± 0.12 |

— the Human Domainome abundance scans (Beltran et al. 2025)
